These are literature values, as cited in paper PMC8441013.

This data set concerns the target neuromedin B (Homo sapiens) (UniProt P08949).
UniProt P08949, sequence (P08949 whole entry, looked up): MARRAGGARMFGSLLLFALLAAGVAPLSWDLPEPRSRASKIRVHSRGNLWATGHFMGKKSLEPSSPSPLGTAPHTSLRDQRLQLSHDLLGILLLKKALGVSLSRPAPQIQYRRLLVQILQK

Consider NMBR (from UniProt P28336), for which the Kd was 5 nM.
